# Source: the supplement of paper PMC11865577
# Tests used:
# Assay in all cases: pull-down binding Z-score (relative to library population); higher = stronger binding
# [1] = tested on: G-clamp-N3 (biotin conjugate); details: RNA library: Library-1 (pre-miRNA loops + repeats)
# Method in brief: (§1)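 To score binding, a beads-only signal was subtracted, barcoded replicate probes were averaged with the highest and lowest dropped, and the value was converted to a Z-score using the library mean and standard deviation. The input was 1 μg of Cy5- or Cy3-end-labelled RNA library, heat-folded in phosphate/NaCl/KCl buffer and mixed for 60 min at 25 °C with streptavidin beads carrying 100 pmol of biotin-conjugated small molecule. Bound RNA was eluted in hot SDS and hybridised to a DNA barcode microarray at 55.5 °C for 20 h.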
# [2] = tested on: TO-3-N3 (biotin conjugate); details: RNA library: Library-2
# Method in brief: as §1
# [3] = tested on: TO-3-N3-2 (biotin conjugate); details: RNA library: Library-2
# Method in brief: as §1
# TO-N3 (biotin conjugate) = details: RNA library: Library-2
# Method in brief: as §1
# [4] = tested on: TO-N3-2 (biotin conjugate); details: RNA library: Library-2
# Method in brief: as §1
Sequence,pull-down binding Z-score [1],pull-down binding Z-score [2],pull-down binding Z-score [3],pull-down binding Z-score (TO-N3 (biotin conjugate)),pull-down binding Z-score [4]
AGUCUCUGAAGAGAGCUGUGGACUGA [hsa-mir-6721],1.18,0.726,0.732,0.839,0.916
UAUUGUGUUGAUCAACAAUA [hsa-mir-5590],-0.46,-0.858,-0.465,-0.668,-0.668
CUGAGAGUGUCAUGGUGGAGCCUCCG [hsa-mir-4784],0.795,0.121,-0.0723,0.735,1.55
UUUGCUAUUUUUUUUUAAUGGCAAA [hsa-mir-548ac],0.725,-0.607,-0.0611,-1.01,-1.46
AUUUUCACUUAAU [hsa-mir-302f],0.103,-0.0598,-0.267,-0.27,-1.17
CAUUGUAACAUGAUAGUG [hsa-mir-4264],0.389,-0.752,-0.295,-0.441,-0.45
CUUUCUGUUGUCUGAAAGAAAAGAAAA [hsa-mir-522],-0.228,-0.109,0.118,0.617,0.775
AAAUAAGAGGCUAGGAUUGCCUCUUAUUU [hsa-mir-3201],0.838,-0.688,-0.362,-1.18,-1.57
AUUGGCUUGGAUUCUGCAAAGCCU [hsa-mir-7151],0.697,-0.259,0.281,0.194,1.03
UGGACAGAAAUUUCCUUUUGAGGAAAUCUUUCCC [hsa-mir-4308],-0.543,-0.486,-0.309,-0.671,-0.367
CGCUGCCUGGAAUUAACCCCGCUGUG [hsa-mir-636],-1.15,0.493,-0.249,0.517,0.891
CCUUCUAAUGAGUAUGCUUAACUUGGUAGAAGG [hsa-mir-3914-1],0.508,-0.108,-0.0963,-0.141,-0.858
CCUUGUGAAUGUCGGGCAAUGG [hsa-mir-4701],1.59,-0.0355,0.357,0.267,0.503
UUGUGAUGUUUACCGUUUAAAUCCACGG [hsa-mir-125b-1],-0.878,0.0416,-0.313,0.107,0.078
UGCAGUUAGUGAAGCAGCUUAGAAUCUACUGCC [hsa-mir-18b],0.0114,0.192,0.625,0.989,1.47
UGCACCAGUUCUGGCCGCUGGUGGA [hsa-mir-4683],-0.459,-0.16,-0.295,0.104,0.856
GAAUUCGAUUCAUCAAAGCGAGUC [hsa-mir-485],-0.234,-0.128,0.143,0.0539,0.225
CCUCCCUAGGGGAUCCCAGGUAGG [hsa-mir-4688],-0.606,0.295,-0.168,0.0963,-0.0612
UUUCCCAUUAUUUUAAUUGCGAA [hsa-mir-570],-0.975,-0.699,-0.363,-0.927,-1.16
UGUGAGAGCUACUAAGUCUUAUA [hsa-mir-8076],0.772,0.0311,-0.223,-0.162,-0.596
UGCCUACUACUGAUGACAUACAAUGUAAGUGCUCAUUUAGGCG [hsa-mir-5696],-0.861,-0.702,-0.289,-0.71,-0.201
UUUUCAGUUCCUGAGAUC [hsa-mir-4287],-1.15,-0.0736,-0.202,-0.128,-0.441
UUCAUAGGGAAGCCUUUCCAUGAA [hsa-mir-4738],-0.912,-0.542,-0.446,-0.559,-0.574
GGAGACGGGUCUUUCUC [hsa-mir-1208],-1.52,0.816,0.466,1.04,0.758
GUAGAUUUUAUGUCAC [hsa-mir-892b],-0.748,-0.000191,-0.156,-0.00927,0.0365
CUGUGAUAACAACUCAG [hsa-mir-4705],-1.06,0.564,-0.23,0.29,-0.508

Sequence,pull-down binding Z-score [1],pull-down binding Z-score [2],pull-down binding Z-score [3],pull-down binding Z-score (TO-N3 (biotin conjugate)),pull-down binding Z-score [4]
UUUGGCUGCCAAAAGAAAUGGCCAAA [hsa-mir-548at],-0.71,-0.656,-0.331,-0.547,-0.668
CAGUUGUACUGUGGCUG [hsa-mir-1291],0.37,0.0428,0.154,0.076,0.0227
AAAUAAAAGAUGGAGUCGUUUGACGUCUUUUAACACCCUUU [hsa-mir-8055],-0.175,-0.623,-0.1,-0.706,-0.866
GAGUAUUUUAAUACUGGCAUACUC [hsa-mir-1263],-0.0468,-0.584,0.095,-0.837,-0.98
GACAGGCUGGCCUCUGGAUGACCUGC [hsa-mir-5189],0.679,1.18,-0.186,1.4,1.37
UGGUUUGACACAGAGCUAAAUCA [hsa-mir-5007],-0.866,0.00148,0.0372,0.596,-0.172
CCCAGCCUUGGCGUUCAGGUGCUGAG [hsa-mir-3150b],-0.3,-0.0824,-0.23,-0.022,0.723
UACUAACAGCACUGGAGGGUGUA [hsa-mir-142],2.68,-0.0529,0.107,0.114,0.533
CUGUUCAGGACUCCCAAAUUGUACAG [hsa-mir-199b],-0.893,1.12,0.385,1,0.347
CAGUGCACCUUCAUGAACCG [hsa-mir-938],-1.11,0.249,0.209,0.758,1.14
CUUUCUGUUGUCUGAAAGAAAAGAAAG [hsa-mir-520c_520b_519c_519b],0.44,0.176,0.102,0.458,0.38
CUUCGGUAUUCAUCAAAAAUACCAAAG [hsa-mir-4735],-0.293,-0.683,-0.63,-1.08,-1.52
CAGAGUGGGCUCACCUCUCGCCCACACUG [hsa-mir-6760],-0.917,-0.556,-0.336,-0.637,-0.38
GGUUUGCGCCUCAAGAAACC [hsa-mir-1255b-2],0.436,-0.187,-0.306,-0.0954,0.521
AGGUUCUGCUGGCUGAGAACCU [hsa-mir-3667],2.19,-0.215,-0.106,-0.17,0.149
UAUCUAUAUAUAUGUGUA [hsa-mir-3171],-0.471,-0.0511,-0.0303,-0.0908,0.835
UGUGGCCUUUUUGCCUUUUCUAAAGGCCACAU [hsa-mir-1250],0.00873,-0.234,-0.241,-0.489,-0.551
AUGUCUGCUGGGGAACCGGGGCU [hsa-mir-4518],1.1,0.587,0.297,0.984,1.39
GUUAGUUGUGGACACAUACUAAC [hsa-mir-3912],-0.0574,-0.764,-0.735,-1.19,-1.25
GUGCUGGCAGUGGCCACGUAA [hsa-mir-4276],0.096,-0.0231,0.0605,0.642,1.46
GAGACGCUUUUAAAGUCUC [hsa-mir-3926-2],0.131,-0.631,-0.552,-0.855,-1.22
AGUCCGUGCAUCCGCCCUUCGAUGCUUGGGUU [hsa-mir-3182],-1.11,-0.405,-0.389,-0.278,0.421
AGUGGACGAGUCUCAUUA [hsa-mir-3193],-0.476,0.224,0.319,0.678,0.613
GAGUUUGGGAUUUGAAAAAACC [hsa-mir-181a-2],0.843,0.253,0.292,0.394,0.793
UUGAGGGACAUGGUUAAUGGAAUUGUCUCA [hsa-mir-342],0.369,0.338,0.0248,0.413,0.641
UCUUGAAUUUUUGCCAGUUCAAGA [hsa-mir-5197],0.24,-0.956,-0.517,-1.33,-1.38

Sequence,pull-down binding Z-score [1],pull-down binding Z-score [2],pull-down binding Z-score [3],pull-down binding Z-score (TO-N3 (biotin conjugate)),pull-down binding Z-score [4]
GUGGAACUGACCUGCCCCCUUUCUC [hsa-mir-6817],-1.77,0.152,0.124,0.517,0.882
AGUCUGUCUCAUACCCAACCAGAUU [hsa-mir-205],-1.11,0.258,0.167,0.14,-0.233
UUUGCUGUUGAACGUAGUGGUAA [hsa-mir-548ar],-0.679,0.181,0.0962,0.407,0.387
GAUUUCUAUGAGAACAUC [hsa-mir-3675],-0.499,-0.704,-0.57,-1.02,-0.95
CCAUACAAUAUUUGG [hsa-mir-1302-1],-1.2,-0.642,-0.406,-0.898,-1.09
GAUGGGAUUAGAAACCAUAUGUCUCAUC [hsa-mir-3617],0.264,0.0209,-0.165,-0.25,-0.438
GGCCCCAGGAAGAAGGGCCUGGUGGAGCC [hsa-mir-6743],2.82,0.235,0.267,0.577,1.51
CUGCUUUUAAAGGUAAUGGCAA [hsa-mir-548ag-1],-0.0258,0.107,-0.0835,0.193,-0.0105
AUGGUCUCUAUAUUUAUGAUGAUUAA [hsa-mir-889],-0.798,0.533,0.373,0.577,0.0111
CGAGACACAGAAACAGACACCUGCCCUCGA [hsa-mir-151b],-2.29,0.442,0.464,1.21,1.69
AUGCAUGGCUGGUGGCGGCGUGCAG [hsa-mir-6722],0.533,0.897,0.74,1.56,2.13
CCUCGAAGCUGCCUUUAGAAAUGAGG [hsa-mir-4496],-0.107,-0.0169,-0.192,0.176,0.142
CGAGGUGGGCUAGGCUCGGGCCCGUGGCG [hsa-mir-3656],2.89,0.715,0.185,1.7,2.8
AGGUCUCCUGGCAU [hsa-mir-4256],-0.698,-0.274,-0.439,-0.164,-0.096
GGAGUUGAUGCACAGUUAUCCAGCUCC [hsa-mir-337],-0.406,-0.577,-0.326,-0.495,-0.0382
UGGUGGGAGAGGAGCCCCACUGUGGAAGUCUGACCCCCACA [hsa-mir-6785],-0.814,1.05,1.01,1.64,1.86
UUUGCCUAUAAAAGUAAUGGCAAA [hsa-mir-548an],0.207,-0.247,-0.19,-0.512,-0.888
AGCUGUGAAAGUCCUAGCU [hsa-mir-1256],0.661,0.994,0.221,2.17,3.94
CAGAUACUUUUUAAAAUUUGUUUGAGUUGAGGCAGAUUAAAUAUCUG [hsa-mir-4742],0.164,-0.76,0.104,-0.82,-0.673
UGUAUGUGUAAAUACAUAUCCACACA [hsa-mir-4789],-1.45,0.0268,-0.00888,-0.285,-0.589
GGACAGGGAUUCUUUUCACUGUU [hsa-mir-599],1.08,-0.0902,0.0302,0.141,0.0602
GCUAACUGUGACCUUAGC [hsa-mir-4729],-0.373,0.00513,-0.181,-0.187,-0.478
GAGCCUUAAAGGAUGAGGUA [hsa-mir-4280],-0.485,0.0602,0.063,0.362,0.54
ACACUGGGCUGCCCCCACUGCCCAGUGC [hsa-mir-4277],-0.963,0.676,-0.357,0.594,0.413
